Test results from article PMC3340929.
pKd: −log10 of the molar value.

Target: NFS1–ISD11–ISCU2 protein complex (SDU) (human) (UniProt Q9HD34)
Assay: enzyme activity titration

Substance	pKd
FXN N146K variant (FRDA missense mutation) (from UniProt Q16595 82-210) (natural protein)	5.20
FXN Q153A variant (from UniProt Q16595 82-210) (natural protein)	5.12
FXN R165C variant (FRDA missense mutation) (from UniProt Q16595 82-210) (natural protein)	4.98

Now those with a higher pKd, led by results:

pKd	Substance
5.66	FXN Q148G variant (from UniProt Q16595 82-210) (natural protein)
5.87	FXN N146A variant (from UniProt Q16595 82-210) (natural protein)
6.07	FXN Q148R variant (FRDA missense mutation) (from UniProt Q16595 82-210) (natural protein)
